The results in this text go back to patent US20160031942A1 (LONDON HEALTH SCIENCES CENTRE RESEARCH, published 2016).

Assay [1] has as its target T1, Recombinant protein RHAMM-CT (truncated RHAMM, carboxy terminus containing the HA binding domain, amino acids … (Mus musculus (Mouse), UniProt Q00547 706-766)).
T1 construct: Expressed in E. coli BL21 from pPAL7-RHAMM as eXact-tagged protein and purified on Profinity eXact resin (fluoride elution); M.W. 7.1 kDa, pI 10.1; also called recombinant RHAMM
T1 sequence: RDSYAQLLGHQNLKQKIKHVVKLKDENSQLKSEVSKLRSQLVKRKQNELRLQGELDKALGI
As to the kind of experiment: solid phase peptide binding assay (ELISA), immobilised RHAMM.

For assay [2], the target named is T1, Recombinant protein RHAMM-CT (truncated …). Nature of the assay: SPR screening (ProteON XPR36), RHAMM immobilised, peptide at 10 µM. As for the experimental part:
ProteON XPR36 system was used for the selection and ranking of different tubulin derived peptides against RHAMM. For immobilization of RHAMM, the ProteON GLC sensor chip surfaces were activated by amine coupling using 100 mM EDAC and 24 mM sulfo-NHS. RHAMM (30 μg/mL in sodium bicarbonate buffer, pH 9.7) was injected at a flow a rate of 30 μl/min. A buffer sample was injected on a different sensor plate for use as a reference. Ethanolamine HCl (1M, pH 8.5) was then injected to deactivate any remaining surface groups. Peptides (10 μM in PBS-T, 2% DMSO) were injected to a RHAMM functionalized surface at 50 μL/min for 3 minutes followed by a 10 minute dissociation (i.e. injection of PBS-T buffer) period. The surfaces were regenerated using two injections of 30 μL of 1M NaCl prior to the injection of the next peptide. In all experiments, reference subtraction was performed using data obtained from reference plate (No RHAMM) and RHAMM functionalized plate.
After immobilization of RHAMM on the SPR sensor chip, injection of a series of tubulin derived peptides was carried out. Association of the peptides with RHAMM proceeded for 3 minutes and the dissociation in analyte free buffer was carried out for 10 minutes. […]

The target of assay [3] is T2, Recombinant protein RHAMM-CT (truncated RHAMM, carboxy terminus containing the HA binding domain, amino acids … (UniProt Q00547 706-766)).
T2 chain: T1 sequence
As to the kind of experiment: SPR.

Ends that are not written are not given here. * marks the point of attachment. FITC = O=C1OC2(c3ccc(O)cc3Oc3cc(O)ccc32)c2ccc(NC(=S)*)cc21; Ahx = NCCCCCC(=O)O

For the molecule {FITC-Ahx}-SVEAEAEEGEEY-NH2 [peptide 3c (SEQ ID NO: 27), fluorescein-conjugated SEQ ID NO: 3], the binding result in assay [1] is given as “binds”. In the case of {FITC-Ahx}-GEFEEEAEEEVA-NH2 [peptide 11c (SEQ ID NO: 31), fluorescein-conjugated SEQ ID NO: 11], in assay [1], the binding result is listed as “binds”.

B1: peptide 14a (SEQ ID NO: 14), unmodified tubulin-derived peptide, sequence directly flanking beta-IIIa CTT (peptide)
peptide: FTEAESNMNDLV-NH2
notes: Synthetic 12-mer made on Rink amide MBHA resin
In the case of B1, the binding result in assay [2] is “binds”. Moreover, in assay [3], the Kd was 0.03 µM.

With {FITC-Ahx}-EAFEDEEEEIDG-NH2 [peptide 12c (SEQ ID NO: 33), fluorescein-conjugated SEQ ID NO: 12], in assay [1], the binding result was “binds”.
